Consider three substances from US20220307001.

In data set [1] the test system is xCas9 3.7 nuclease (evolved SpCas9) (Streptococcus pyogenes). Briefly: cell_activity. Particulars: GUIDE-seq HEK293T.
Data set [2] deals with xCas9(3.7)-BE3 (Streptococcus pyogenes). Description: cell_activity. To be noted: HEK293T; PAM GAA; SD 0.75; >50-fold over SpCas9-BE3.

In the case of “FANCF CGT site sgRNA spacer ; FANCF CGT PAM target”, the activity (on-target reads) in data set [1] (PAM CGT, no off-target reads) stood at 3060. As for “EMX1 site sgRNA spacer ; EMX1 site target, GGG PAM”, in data set [1] (PAM GGG, zero off-target reads), the activity (on-target reads) worked out at 6870. “FANCF GAA site sgRNA spacer ; FANCF GAA PAM target” had an activity (on-target reads) in data set [1] (PAM GAA, no off-target reads) of 3630. The same substance yielded an activity (% C-to-T editing) in data set [2] of 10.
